# From patent EP4818206A1
# Assays:
# [1] = biological target: cynomolgus CD84 (NCBI Accession No. XM_005541244.3), on HEK293T cells (cynomolgus); test: flow cytometry on HEK293T-Cyno-CD84 cells
# [2] = biological target: human CD84 (NCBI Accession No. NP_001171808.1), on cells (human) (UniProt Q9UIB8); test: flow cytometry on HEK293T-hCD84 cells
# UniProt Q9UIB8, sequence (Q9UIB8 22-345): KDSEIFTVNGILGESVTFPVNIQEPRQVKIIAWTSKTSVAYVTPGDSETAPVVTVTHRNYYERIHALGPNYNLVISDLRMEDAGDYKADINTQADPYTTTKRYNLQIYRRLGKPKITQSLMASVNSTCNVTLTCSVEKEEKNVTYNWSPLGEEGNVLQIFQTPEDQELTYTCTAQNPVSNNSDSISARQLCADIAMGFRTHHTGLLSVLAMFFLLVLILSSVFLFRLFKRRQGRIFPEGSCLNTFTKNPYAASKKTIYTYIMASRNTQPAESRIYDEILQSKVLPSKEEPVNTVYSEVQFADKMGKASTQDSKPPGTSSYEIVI
substance,measurement,setting,value
CD84.1.21 (Biolegend; Cat. No. 326002) (antibody),EC50,[1],16.6 nM
same,MFI (max),[1],57700 MFI
same,EC50,[2],2.09 nM
same,MFI (max),[2],134000 MFI
